# Reference: PMC3860269
# Biological target: in vitro assembled HIV-1 CA–NC complexes bearing the capsid change N74D (HIV-1)
# Assay: co-sedimentation
substance,measurement,value
GFP-Nup98 (from UniProt P52948 1-880) (natural protein),fold decrease of binding against wild type CA–NC complexes,2 fold
